Test results taken from patent publication US6090929, “Protein binding fragments of gravin” (Oregon Health Science University, dated 2000).

Biological target: recombinant murine RIIα (murine, UniProt P12367)
Experiment: in situ overlay of fixed, permeabilized PMA-treated HEL cells with recombinant murine RIIα, immunofluorescence
Procedure: After 1 hr the coverslips were carefully washed in PBS and 0.2% BSA and incubated with either a mixture of FITC conjugated donkey anti-rabbit secondary antibody (1:100 dilution, Jackson ImmunoReasearch Laboratories Inc, West Grove, Pa.) and rhodamine conjugated phalloidin (1 unit/coverslip, Molecular Probes, Inc, Eugene, Oreg.) or secondary antibody alone. […] Prior to incubation with primary antibody, cells were incubated with 80 nM recombinant murine RII for 2 hr and unbound RII removed by washing three times in PBS and 0.2% BSA. […] Control coverslips were treated with the antibody to RII in the absence of exogenous murine RII. Cells were examined using a Leica confocal laser scanning system equipped with a Leitz Fluovert-FU inverted microscope and an argon/krypton laser.
Fixed and permeabilized cells pre-treated with PMA were overlayed with recombinant murine RIIα.

B1: gravin (full length, human; 250 kDa protein of cell lysates) (other)
chain: MGAGSSTEQRSPEQPPEGSSTPAEPEPSGGGPSAEAAPDTTADPAIAASDPATKLLQKNGQLSTINGVAEQDELSLQEGDLNGQKGALNGQGALNSQEEEEVIVTEVGQRDSEDVSERDSDKEMATKSAVVHDITDDGQEENRNIEQIPSSESNLEELTQPTESQANDIGFKKVFKFVGFKFTVKKDKTEKPDTVQLLTVKKDEGEGAAGAGDHQDPSLGAGEAASKESEPKQSTEKPEETLKREQSHAEISPPAESGQAVEECKEEGEEKQEKEPSKSAESPTSPVTSETGSTFKKFFTQGWAGWRKKTSFRKPKEDEVEASEKKKEQEPEKVDTEEDGKAEVASEKLTASEQAHPQEPAESAHEPRLSAEYEKVELPSEEQVSGSQGPSEEKPAPLATEVFDEKIEVHQEEVVAEVHVSTVEERTEEQKTEVEETAGSVPAEELVGMDAEPQEAEPAKELVKLKETCVSGEDPTQGADLSPDEKVLSKPPEGVVSEVEMLSSQERMKVQGSPLKKLFTSTGLKKLSGKKQKGKRGGGDEESGEHTQVPADSPDSQEEQKGESSASSPEEPEEITCLEKGLAEVQQDGEAEEGATSDGEKKREGVTPWASFKKMVTPKKRVRRPSESDKEDELDKVKSATLSSTESTASEMQEEMKGSVEEPKPEEPKRKVDTSVSWEALICVGSSKKRARRRSSSDEEGGPKAMGGDHQKADEAGKDKETGTDGILAGSQEHDPGQGSSSPEQAGSPTEGEGVSTWESFKRLVTPRKKSKSKLEEKSEDSIAGSGVEHSTPDTEPGKEESWVSIKKFIPGRRKKRPDGKQEQAPVEDAGPTGANEDDSDVPAVVPLSEYDAVEREKMEAQQAQKGAEQPEQKAATEVSKELSESQVHMMAAAVADGTRAATIIEERSPSWISASVTEPLEQVEAEAALLTEEVLEREVIAEEEPPTVTEPLPENREARGDTVVSEAELTPEAVTAAETAGPLGSEEGTEASAAEETTEMVSAVSQLTDSPDTTEEATPVQEVEGGVPDIEEQERRTQEVLQAVAEKVKEESQLPGTGGPEDVLQPVQRAEAERPEEQAEASGLKKETDVVLKVDAQEAKTEPFTQGKVVGQTTPESFEKAPQVTESIESSELVTTCQAETLAGVKSQEMVMEQAIPPDSVETPTDSETDGSTPVADFDAPGTTQKDEIVEIHEENEVHLVPVRGTEAEAVPAQKERPPAPSSFVFQEETKEQSKMEDTLEHTDKEVSVETVSILSKTEGTQEADQYADEKTKDVPFFEGLEGSIDTGITVSREKVTEVALKGEGTEEAECKKDDALELQSHAKSPPSPVEREMVVQVEREKTEAEPTHVNEEKLEHETAVTVSEEVSKQLLQTVNVPIIDGAKEVSSLEGSPPPCLGQEEAVCTKIQVQSSEASFTLTAAAEEEKVLGETANILETGETLEPAGAHLVLEEKSSEKNEDFAAHPGEDAVPTGPDCQAKSTPVIVSATTKKGLSSDLEGEKTTSLKWKSDEVDEQVACQEVKVSVAIEDLEPENGILELETKSSKLVQNIIQTAVDQFVRTEETATEMLTSELQTQAHVIKADSQDAGQETEKEGEEPQASAQDETPITSAKEESESTAVGQAHSDISKDMSEASEKTMTVEVEGSTVNDQQLEEVVLPSEEEGGGAGTKSVPEDDGHALLAERIEKSLVEPKEDEKGDDVDDPENQNSALADTDASGGLTKESPDTNGPKQKEKEDAQEVELQEGKVHSESDKAITPQAQEELQKQERESAKSELTES
B1: binds.
